{
  "source": "paper PMC6313406",
  "target": "Dimeric Lip3 (isoenzyme 3 of Candida rugosa lipase) (Candida rugosa) (UniProt P32947)",
  "test": "SEC; Sephacryl S200 column (1.6x60 cm), 25 mM Tris/HCl pH 7.5, 0.15 M NaCl, 0.3 mL/min, no detergent; calibrated with the high molecular weight marker kit",
  "data": [
    {"substance": "Dimeric Lip3 (isoenzyme 3 of Candida rugosa lipase) (from UniProt P32947 16-549)", "values": [
      {"measurement": "stoichiometry N", "result": 2}
    ]}
  ]
}
